Results on 53 sequences are retold here after the supplement of paper PMC10567573.

The data set can be described thus: protein stability index of a GFP-peptide fusion (GPS, HEK-293T) (PSI 1-6); higher = more stable. The following applies: c terminus: a fixed tail appended.

± gives the standard deviation.
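Also: 24-mer peptide tiles fused after GFP, lentivirally expressed, FACS-sorted into six equal bins by GFP/DsRed ratio, decoded by Illumina sequencing, PSI is the read-weighted mean bin number.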

As for PVLAVVFIICIVIAILLYKSKPDR [PTPRD], the protein stability index reads like this: (treatment: DMSO) 2.94 ± 1.7; (treatment: MLN4924 1 uM, 8 h) 2.87 ± 0.63.
PVPTGFFNMWGFGRVSKQASQPVK [WDR41]: the protein stability index is, setting by setting: (treatment: DMSO) 2.84 ± 0.25; (treatment: MLN4924 1 uM, 8 h) 2.8 ± 0.21.
For the sequence PVYSVPQLLSAMGSLCSLWFGASV [SCNN1D], the protein stability index worked out at 3.06 ± 0.056 (treatment: DMSO) and 3.37 ± 0.59 (treatment: MLN4924 1 uM, 8 h).
As to PYLRGTIKMMQAVRQAFQDQDDRR [GFOD1], the protein stability index by setting is: (treatment: DMSO) 3.32 ± 0.17; (treatment: MLN4924 1 uM, 8 h) 3.56 ± 0.34.
Consider QADLELIESAHRSRIKVLETSYQQ [FBF1], for which the protein stability index (treatment: DMSO) is 5.22 ± 0.16 and the protein stability index (treatment: MLN4924 1 uM, 8 h) was determined as 5.11 ± 0.12.
On to QAEKRAAEKVSEARKRKNRRLKQA [ATP6V1G1], for which the protein stability index reads like this: (treatment: DMSO) 5.47 ± 0.51; (treatment: MLN4924 1 uM, 8 h) 5.33 ± 0.41.
In the case of QAELQELEERLQLQFEAEMARLQE [MTUS2], the protein stability index was determined as 4.78 ± 0.38 (treatment: DMSO) and 4.72 ± 0.29 (treatment: MLN4924 1 uM, 8 h).
Turning to QAWVQKHHPENGEETVTMLEDVER [ZNF396], the protein stability index runs as follows: (treatment: DMSO) 5.1 ± 0.32; (treatment: MLN4924 1 uM, 8 h) 5.39 ± 0.17.
For QCDKRFRWSSDLNKHLTTHQGIKP [ZNF75A], the protein stability index runs as follows: (treatment: DMSO) 3.02 ± 0.12; (treatment: MLN4924 1 uM, 8 h) 2.97 ± 0.24.
For the sequence QCPMRVQKEVAGFVLNRLQYAIIS [CRYL1], the protein stability index runs as follows: (treatment: DMSO) 3 ± 0.78; (treatment: MLN4924 1 uM, 8 h) 2.38 ± 1.
In the case of QDAVDQVKVIMDALDERAKVLHED [TRIM29], the protein stability index came out at 4.93 ± 0.1 (treatment: DMSO) and 4.93 ± 0.34 (treatment: MLN4924 1 uM, 8 h).
On to QDTLELESPSLTSTPVCSQKVVVT [MYBL2], for which the protein stability index was 4.59 ± 0.18 (treatment: DMSO) and 4.63 ± 0.11 (treatment: MLN4924 1 uM, 8 h).
As for QEILELIDREVDLMMRGVKHHNLE [IQUB], the protein stability index was 2.67 ± 0.46 (treatment: DMSO) and 2.64 ± 0.5 (treatment: MLN4924 1 uM, 8 h).
Turning to QELQARLQTVTREKEELLQLSIER [CCDC89], the protein stability index was determined as 4.38 ± 0.35 (treatment: DMSO) and 4.32 ± 0.1 (treatment: MLN4924 1 uM, 8 h).
For the sequence QELVDYVNARQKQGIYEEYEDIRR [PTPN9], the protein stability index runs as follows: (treatment: DMSO) 3.88 ± 0.24; (treatment: MLN4924 1 uM, 8 h) 3.86 ± 0.2.
On the same counts, the results for QEQIEAVLLNSLQQYRQDQRDGSK [CCND2] are 4.51 ± 0.086 and 4.46 ± 0.13.
As to QESSFRSRKIAVEDENDLEELNNG [MIA2], the protein stability index came to 5.32 ± 0.92 (treatment: DMSO) and 5.48 ± 0.15 (treatment: MLN4924 1 uM, 8 h).
For QFILERGEYPRWDAWSGSNAYHIE [CRYBA1], the protein stability index is, setting by setting: (treatment: DMSO) 2.31 ± 0.17; (treatment: MLN4924 1 uM, 8 h) 2.19 ± 0.18.
Regarding QGAKERAHQQKKHSGFEDELSEVL [CHGA], the protein stability index is 5.23 ± 0.25 (treatment: DMSO) and 5.27 ± 0.23 (treatment: MLN4924 1 uM, 8 h).
QGEPLGYRQDDPSYRSFHSGGYGQ [CTNNB1]: the protein stability index turned out to be 3.76 ± 0.48 (treatment: DMSO) and 3.96 ± 0.24 (treatment: MLN4924 1 uM, 8 h).
Take QGLAEKSPLQTIGEEQTQNPYTEL [WDR41]: the protein stability index by setting is: (treatment: DMSO) 5.3 ± 0.14; (treatment: MLN4924 1 uM, 8 h) 5.29 ± 0.13.
For QGNKKEHVIHIIDFGLAKEYIDPE [CSNK1G1], the protein stability index was 2.5 ± 0.16 (treatment: DMSO) and 2.81 ± 0.24 (treatment: MLN4924 1 uM, 8 h).
On to QGNSVDRMAAPRAEALFDFTGNSK [NCF4], for which the protein stability index reads like this: (treatment: DMSO) 4.7 ± 0.15; (treatment: MLN4924 1 uM, 8 h) 4.79 ± 0.17.
The sequence QGWVREHCPESGEEAVILLEDLER [ZSCAN9] displayed a protein stability index (treatment: DMSO) of 4.36 ± 0.12 and a protein stability index (treatment: MLN4924 1 uM, 8 h) of 4.7 ± 0.28.
As for QIKALNNKFASFIDKVRFLEQQNQ [KRT71], the protein stability index is, setting by setting: (treatment: DMSO) 2.38 ± 0.1; (treatment: MLN4924 1 uM, 8 h) 2.59 ± 0.4.
On the same counts, the results for QISIYGVKILEPKTKEVQHNCQLH [GULP1] are 2.58 ± 0.37 and 2.85 ± 0.39.
For QITVKALPKPPGTPVVTESTATSI [PTPRD], the protein stability index is, setting by setting: (treatment: DMSO) 4.62 ± 0.29; (treatment: MLN4924 1 uM, 8 h) 4.61 ± 0.091.
Regarding QKEVAGFVLNRLQYAIISEAWRLV [CRYL1], the protein stability index is, setting by setting: (treatment: DMSO) 3.43 ± 0.53; (treatment: MLN4924 1 uM, 8 h) 3.37 ± 0.27.
With QKRYQDWFQRQYLSTPDSQSLRCD [INTS3], the protein stability index (treatment: DMSO) is 2.96 ± 0.1 and the protein stability index (treatment: MLN4924 1 uM, 8 h) is 3.13 ± 0.17.
Regarding QLLLGRLFRWPDLQHAVELKPLCG [SMAD6], the protein stability index reads like this: (treatment: DMSO) 2.12 ± 0.19; (treatment: MLN4924 1 uM, 8 h) 2.36 ± 0.17.
On the same counts, the results for QLQVTEREEVRGRELTGLKALYET [LMNB1] are 3.68 ± 0.18 and 3.98 ± 0.38.
The corresponding values for QLSHIKAKIRAKIPGTGALASAAA [RTN2] are 3.07 ± 0.21 and 3.09 ± 0.41.
The sequence QLVLRTKEAFDTIQEQKVVLEENG [SASS6] yielded a protein stability index (treatment: DMSO) of 4.45 ± 0.23 and a protein stability index (treatment: MLN4924 1 uM, 8 h) of 4.64 ± 0.46.
As for QLYGDAPGEVVPSGESGLRRRGSD [TMEM40], the protein stability index came to 5.13 ± 0.18 (treatment: DMSO) and 5.19 ± 0.25 (treatment: MLN4924 1 uM, 8 h).
As for QMAKKAEAFQLYQEAAQLDMLLEK [FLOT1], the protein stability index runs as follows: (treatment: DMSO) 2.73 ± 0.36; (treatment: MLN4924 1 uM, 8 h) 3.21 ± 0.64.
QNLANEEVRKLTQRLEEMTQRMEA [MATN2] registered a protein stability index (treatment: DMSO) of 4.67 ± 0.14 and a protein stability index (treatment: MLN4924 1 uM, 8 h) of 4.87 ± 0.39.
QNLSRSWHDVQVSSAYVKTSEKLG [TPD52L2]: the protein stability index runs as follows: (treatment: DMSO) 3.98 ± 0.11; (treatment: MLN4924 1 uM, 8 h) 3.82 ± 0.21.
On the same counts, the results for QNNQAKELERLIDKAMKKDGLVGM [FIS1] are 4.18 ± 0.19 and 4.3 ± 0.12.
On the same counts, the results for QNQVDELERKFRCQQEQLFQTRQE [LRRC45] are 5.04 ± 0.22 and 5.02 ± 0.12.
With QPGAGFGMPPAGTGMPMMPQQPVM [SNAP91], the protein stability index amounted to 3.71 ± 0.26 (treatment: DMSO) and 3.84 ± 0.3 (treatment: MLN4924 1 uM, 8 h).
On to QPLRTPRDEAIYECVASNNVGEIS [PTPRD], for which the protein stability index runs as follows: (treatment: DMSO) 4.88 ± 0.23; (treatment: MLN4924 1 uM, 8 h) 5.13 ± 0.12.
Consider QPPEMIGPMRPEQFSDEVEPATPE [GAGE1], for which the protein stability index reads like this: (treatment: DMSO) 5.03 ± 0.33; (treatment: MLN4924 1 uM, 8 h) 5.17 ± 0.17.
As to QPQDVDLALDSGASLLHLAVEAGQ [RIPK4], the protein stability index by setting is: (treatment: DMSO) 4.44 ± 0.51; (treatment: MLN4924 1 uM, 8 h) 4.58 ± 0.71.
As to QPQQGYIPPMAQPGLPPVPGAPGM [ZNF207], the protein stability index by setting is: (treatment: DMSO) 4.36 ± 0.068; (treatment: MLN4924 1 uM, 8 h) 4.47 ± 0.28.
As for QQCQYRWLRVLNPDLVKGPWTKEE [MYBL2], the protein stability index is, setting by setting: (treatment: DMSO) 2.83 ± 0.38; (treatment: MLN4924 1 uM, 8 h) 2.9 ± 0.29.
Take QQQEPPLAMGTVSLGQLPLPPIPH [PLAGL1]: the protein stability index is, setting by setting: (treatment: DMSO) 4.33 ± 0.14; (treatment: MLN4924 1 uM, 8 h) 4.35 ± 0.15.
As to QQRLAHLEDKLRLLAQARDEAQGA [LRRC45], the protein stability index (treatment: DMSO) is 4.29 ± 0.28 and the protein stability index (treatment: MLN4924 1 uM, 8 h) came out at 4.37 ± 0.36.
On to QQRLQGQLCDVSIRVQGREFRAHR [ZBTB22], for which the protein stability index by setting is: (treatment: DMSO) 3.34 ± 0.42; (treatment: MLN4924 1 uM, 8 h) 3.81 ± 0.5.
The corresponding values for QRFGEALQDQEKAWGFPENATAPR [ELOA2] are 4.78 ± 0.23 and 4.68 ± 0.46.
The corresponding values for QRHRDILQVIYWARDVFIITGVWV [GOSR1] are 2.72 ± 0.72 and 2.25 ± 0.73.
On to QRPADVPEPGRAGYPAPRDEGVLR [HAGHL], for which the protein stability index stood at 4.85 ± 0.32 (treatment: DMSO) and 4.84 ± 0.15 (treatment: MLN4924 1 uM, 8 h).
On the same counts, the results for QRVEKDMKKAKEQLKIRKSNQIPT [FUNDC2] are 4.58 ± 0.32 and 4.56 ± 0.26.
Turning to QSAQIACSSPSVVASLPLDQSDEG [MAGEA10], the protein stability index was determined as 5.5 ± 0.45 (treatment: DMSO) and 5.236 ± 0.029 (treatment: MLN4924 1 uM, 8 h).
